Results published in the supplement of paper PMC10567573.

B1: ZNF449 (parent)
chain: CTHCSKSFRQRAGLIMHQVTHFRG
B2: CCDC6 (parent)
chain: ASVTIQARAEQEEEFISNTLFKKI

Variants of: B1
Assay: protein stability index of a GFP-peptide fusion (GPS, HEK-293T) (PSI 1-6); higher = more stable
Details: c terminus: a fixed tail appended
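Also: lentivirally expressed fusions sorted by FACS into six bins by GFP to DsRed ratio, PSI derived from sequencing read proportions per bin multiplied by bin number.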

Protein stability index: each site, then its substitutions
T20: D 2.18; W 2.09; N 2.44; Y 2.05; Q 1.83; E 1.99; M 1.56; I 2.57; K 2.33; F 2.09; R 2.14; C 1.52; S 1.45; G 2.06; H 2.33; L 1.43; V 1.73; A 2.04
L14: Y 1.5; I 1.3; Q 2.02; N 1.49; W 2.05; V 2.37; F 2.54; T 2.09; S 1.9; M 1.97; C 1.73; H 2; D 2.14; G 1.41; K 2.05; R 2.01; E 1.95; P 1.54
H17: L 1.69; N 1.43; P 1.03; W 2.12; E 2.36; C 2.29; D 2.46; G 3.28; K 2.24; M 2.44; I 2.52; R 1.82; T 1.47
I15: P 1.22; K 2.36; A 2.39; D 2.93; F 2.4; M 2.49; T 2.3; G 1.94; V 3.12; S 3.21; R 2.66; N 1.73; H 2.2; W 2.9; E 3.59; Y 2.44; Q 2.76
G24: T 2.69; I 2.44; D 3.59; F 2.68; M 2.81; H 2.17; Y 2.41; V 3.46; Q 3.19; L 3.55; S 2.33; A 2.82; R 2.29; P 3.29; K 3.01; C 2.53; W 3.25; N 2.91; E 2.88
F22: P 1.58; Q 2.5; Y 2.45; H 3.29; A 1.72; C 3.06; M 2.18; D 2.37; S 2.2; T 1.98; R 3.58; I 1.92; L 1.93; N 2.39; W 1.08; E 1.98; K 2.06; G 2.61; V 2.14
A12: L 2.11; E 3.82; I 2.36; N 2.06; F 2.25; H 1.88; Q 3.53; K 3.49; V 1.48; T 2.2; D 3.09; Y 1.9; W 2.53; P 2.69; G 2.44; M 2.25; R 3.35; C 2.29
Q10: H 2.13; F 1.9; D 3.41; S 1.99; R 1.6; M 1.86; E 2.61; L 1.59; K 2.58; W 2.77; T 2.75; V 2.19; P 1.76; I 1.67; N 2.15; Y 1.95
G13: S 1.52; M 2.12; R 2.65; C 1.07; V 2.58; A 2.47; P 1.23; I 1.96; Y 1.31; Q 2.87; W 1.87; H 1.4; F 1.95; L 1.68; K 2.06; E 3.16; T 2.36; N 2.69
M16: G 3.45; W 1.52; S 3.15; R 3.9; V 2; Q 3.57; P 1.65; C 2.64; N 2.86; T 2.78; K 3.55; H 2.43; L 1.98; Y 1.57; F 2.18; E 3.85; A 3.98; D 3.52; I 3.24
H21: Y 1.4; I 2.39; C 2.53; S 1.29; F 1.8; K 2.28; V 1.91; R 1.85; Q 1.35; E 1.89; A 2.17; M 2.56; L 1.97; T 1.47; P 1.49; G 1.55; W 2.41
R11: Q 1.8; H 1.87; P 1.84; N 1.8; K 1.82; V 2.23; F 2.46; Y 2.29; W 1.94; A 2.28; D 1.58; T 1.69; S 1.48; M 3.23; L 3.44; C 3.42; E 2.79; G 2.28
R23: K 2.7; T 2.03; S 2.07; Q 2.6; V 3.18; I 3.44; P 2.69; L 3.36; G 2.37; Y 2.36; D 2.49; M 2.44; F 3.33; C 2.56; N 2.15; A 2.97; W 3.55; H 1.62; E 2.93
Q18: I 1.96; N 1.53; V 1.52; A 1.51; E 2.09; R 1.73; W 1.29; T 1.43; S 2.48; P 3.9; H 1.72; F 1.67; C 1.9; G 1.32; M 1.69; Y 3.18; D 2.79; L 2.11; K 1.69
V19: A 2.01; H 1.89; W 2.71; K 3.79; I 2.91; R 3.95; Q 2; C 3.24; Y 2.55; L 2.92; E 3.08; M 2.12; S 1.79; T 1.88; P 1.76; F 2.4; N 2.82; G 2.74; D 1.81

Variants of: B2
Assay: as above
Details: c terminus: a fixed tail appended

Protein stability index of substitutions, site by site:
E10: D 3.4; R 2.95; F 2.29; W 1.54; Y 2.03; N 3.1; S 3.14; T 3.22
E12: I 1.69; A 2.58
I24: S 4.17; F 3.66
Q6: T 3.53; M 2.54
K22: A 2.87
L20: C 3.9; R 4.09
F21: I 3.58
A1: T 3.85; I 1.84; G 3.98; K 3.68
T19: W 3.13; S 3.47; L 2.82; D 3.77
N18: C 2.79; H 3.41
R8: L 3.03
A9: R 3.61; H 3.17
E13: R 3.18; T 3.08; Q 3.29; I 2.18
S2: D 4.58; Q 3.71; E 4.11; A 4.01; L 2.32
E14: M 2.99; C 2.08
I16: H 4.28; K 4.53; G 4.43; A 3.84
F15: R 4.09; E 4.69
K23: N 3.37; A 3.23; R 3.28
V3: W 3.32; E 4.86; S 4.38; T 4.57
T4: S 3.86; L 3.21; M 3.2; R 3.14; P 4.32
Q11: W 2.07; F 2.07; T 3.4
I5: G 4.75; M 4.29; V 4; N 4.49
